The series deals with the molecule itself. The series can be described thus: non-reducing SDS gel electrophoresis (silver stain and western blot); purified GzmA run under non-reducing conditions; homodimer at ~50 kDa and polymers of it.

B1: Native human Granzyme A (enzyme, UniProt P12544 29-262, looked up)
chain: IIGGNEVTPHSRPYMVLLSLDRKTICAGALIAKDWVLTAAHCNLNKRSQVILGAHSITREEPTKQIMLVKKEFPYPCYDPATREGDLKLLQLMEKAKINKYVTILHLPKKGDDVKPGTMCQVAGWGRTHNSASWSDTLREVNITIIDRKVCNDRNHYNFNPVIGMNMVCAGSLRGGRDSCNGDSGSPLLCEGVFRGVTSFGLENKCGDPRGPGVYILLSKKHLNWIIMTIKGAV
notes: Granzyme A (GzmA), native human protein, commercially obtained; Some monomer at ~25 kDa is seen beside the homodimer; also called NhGzmA; native GzmA; source: bought: TheraTest (Lombard, IL)
As to B1, the binding result was “binds”.

The record behind these values is article PMC8368726, “Granzyme A Produced by γ9δ2 T Cells Activates ER Stress Responses and ATP Production, and Protects Against Intracellular Mycobacterial Replication Independent of Enzymatic Activity” (Frontiers in Immunology, 2021).
